From patent US20230340160A1 (published 2023)

T1: human CEA expressed on tumor cells (human, UniProt P06731 35-702)
T1 sequence (looked up): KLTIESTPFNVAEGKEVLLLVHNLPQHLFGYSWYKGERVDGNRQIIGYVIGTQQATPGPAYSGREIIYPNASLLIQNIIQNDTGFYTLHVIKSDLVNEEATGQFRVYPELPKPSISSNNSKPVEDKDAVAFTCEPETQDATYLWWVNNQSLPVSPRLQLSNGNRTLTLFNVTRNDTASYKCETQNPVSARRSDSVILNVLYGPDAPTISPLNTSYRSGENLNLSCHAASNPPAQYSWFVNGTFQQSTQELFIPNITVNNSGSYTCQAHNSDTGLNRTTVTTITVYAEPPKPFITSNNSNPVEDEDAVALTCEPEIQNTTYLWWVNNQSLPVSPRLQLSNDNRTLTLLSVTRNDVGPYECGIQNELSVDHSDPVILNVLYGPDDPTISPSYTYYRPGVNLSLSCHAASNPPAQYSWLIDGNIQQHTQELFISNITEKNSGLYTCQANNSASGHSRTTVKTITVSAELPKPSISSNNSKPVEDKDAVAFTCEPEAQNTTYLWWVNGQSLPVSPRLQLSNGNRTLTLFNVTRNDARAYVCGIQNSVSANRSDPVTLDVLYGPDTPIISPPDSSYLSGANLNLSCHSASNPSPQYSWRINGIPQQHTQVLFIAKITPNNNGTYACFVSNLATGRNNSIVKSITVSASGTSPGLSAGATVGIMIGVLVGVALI

B1: CEA/CD3 “2+1 IgG Crossfab, inverted (CL/CH1)”; CL/CH1 exchange (CH1A1A/V9) (bispecific antibody)
heavy 1: not shown
heavy 2: QVQLVQSGAEVKKPGASVKVSCKASGYTFTEFGMNWVRQAPGQGLEWMGWINTKTGEATYVEEFKGRVTFTTDTSTSTAYMELRSLRSDDTAVYYCARWDFAYYVEAMDYWGQGTTVTVSSASTKGPSVFPLAPSSKSTSGGTAALGCLVKDYFPEPVTVSWNSGALTSGVHTFPAVLQSSGLYSLSSVVTVPSSSLGTQTYICNVNHKPSNTKVDKKVEPKSCDKTHTCPPCPAPEAAGGPSVFLFPPKPKDTLMISRTPEVTCVVVDVSHEDPEVKFNWYVDGVEVHNAKTKPREEQYNSTYRVVSVLTVLHQDWLNGKEYKCKVSNKALGAPIEKTISKAKGQPREPQVCTLPPSRDELTKNQVSLSCAVKGFYPSDIAVEWESNGQPENNYKTTPPVLDSDGSFFLVSKLTVDKSRWQQGNVFSCSVMHEALHNHYTQKSLSLSPGK
light 1: DIQMTQSPSSLSASVGDRVTITCKASAAVGTYVAWYQQKPGKAPKLLIYSASYRKRGVPSRFSGSGSGTDFTLTISSLQPEDFATYYCHQYYTYPLFTFGQGTKLEIKRTVAAPSVFIFPPSDEQLKSGTASVVCLLNNFYPREAKVQWKVDNALQSGNSQESVTEQDSKDSTYSLSSTLTLSKADYEKHKVYACEVTHQGLSSPVTKSFNRGEC
light 2: DIQMTQSPSSLSASVGDRVTITCRASQDIRNYLNWYQQKPGKAPKLLIYYTSRLESGVPSRFSGSGSGTDYTLTISSLQPEDFATYYCQQGNTLPWTFGQGTKVEIKSSASTKGPSVFPLAPSSKSTSGGTAALGCLVKDYFPEPVTVSWNSGALTSGVHTFPAVLQSSGLYSLSSVVTVPSSSLGTQTYICNVNHKPSNTKVDKKVEPKSC
notes: 66 is the DNA of 65; also called CL/CH1-exchange construct
B2: CEA/CD3 “2+1 IgG Crossfab, inverted (VL/VH)”; VL/VH exchange (CH1A1A/V9) (bispecific antibody)
heavy 1: not shown
heavy 2: QVQLVQSGAEVKKPGASVKVSCKASGYTFTEFGMNWVRQAPGQGLEWMGWINTKTGEATYVEEFKGRVTFTTDTSTSTAYMELRSLRSDDTAVYYCARWDFAYYVEAMDYWGQGTTVTVSSASTKGPSVFPLAPSSKSTSGGTAALGCLVKDYFPEPVTVSWNSGALTSGVHTFPAVLQSSGLYSLSSVVTVPSSSLGTQTYICNVNHKPSNTKVDKKVEPKSCDKTHTCPPCPAPEAAGGPSVFLFPPKPKDTLMISRTPEVTCVVVDVSHEDPEVKFNWYVDGVEVHNAKTKPREEQYNSTYRVVSVLTVLHQDWLNGKEYKCKVSNKALGAPIEKTISKAKGQPREPQVCTLPPSRDELTKNQVSLSCAVKGFYPSDIAVEWESNGQPENNYKTTPPVLDSDGSFFLVSKLTVDKSRWQQGNVFSCSVMHEALHNHYTQKSLSLSPGK
light 1: DIQMTQSPSSLSASVGDRVTITCKASAAVGTYVAWYQQKPGKAPKLLIYSASYRKRGVPSRFSGSGSGTDFTLTISSLQPEDFATYYCHQYYTYPLFTFGQGTKLEIKRTVAAPSVFIFPPSDEQLKSGTASVVCLLNNFYPREAKVQWKVDNALQSGNSQESVTEQDSKDSTYSLSSTLTLSKADYEKHKVYACEVTHQGLSSPVTKSFNRGEC
light 2: EVQLVESGGGLVQPGGSLRLSCAASGYSFTGYTMNWVRQAPGKGLEWVALINPYKGVSTYNQKFKDRFTISVDKSKNTAYLQMNSLRAEDTAVYYCARSGYYGDSDWYFDVWGQGTLVTVSSASVAAPSVFIFPPSDEQLKSGTASVVCLLNNFYPREAKVQWKVDNALQSGNSQESVTEQDSKDSTYSLSSTLTLSKADYEKHKVYACEVTHQGLSSPVTKSFNRGEC
notes: also called VL/VH-exchange construct
B3: “1+1 IgG scFab, one armed inverted” (anti-EGFR/anti-huCD3) (bispecific antibody)
heavy 1: not shown
heavy 2: EVQLVESGGGLVQPGGSLRLSCAASGYSFTGYTMNWVRQAPGKGLEWVALINPYKGVSTYNQKFKDRFTISVDKSKNTAYLQMNSLRAEDTAVYYCARSGYYGDSDWYFDVWGQGTLVTVSSASTKGPSVFPLAPSSKSTSGGTAALGCLVKDYFPEPVTVSWNSGALTSGVHTFPAVLQSSGLYSLSSVVTVPSSSLGTQTYICNVNHKPSNTKVDKKVEPKSCDKTHTCPPCPAPEAAGGPSVFLFPPKPKDTLMISRTPEVTCVVVDVSHEDPEVKFNWYVDGVEVHNAKTKPREEQYNSTYRVVSVLTVLHQDWLNGKEYKCKVSNKALGAPIEKTISKAKGQPREPQVCTLPPSRDELTKNQVSLSCAVKGFYPSDIAVEWESNGQPENNYKTTPPVLDSDGSFFLVSKLTVDKSRWQQGNVFSCSVMHEALHNHYTQKSLSLSPGK
light: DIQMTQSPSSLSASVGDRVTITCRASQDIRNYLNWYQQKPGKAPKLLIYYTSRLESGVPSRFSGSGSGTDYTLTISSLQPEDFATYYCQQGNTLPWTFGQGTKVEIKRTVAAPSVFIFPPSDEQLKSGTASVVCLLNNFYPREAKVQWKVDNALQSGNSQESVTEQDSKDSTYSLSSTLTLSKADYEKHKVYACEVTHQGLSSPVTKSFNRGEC
B4: “2+1 IgG scFab, P329G LALA” (anti-EGFR/anti-huCD3) (bispecific antibody)
heavy 1: not shown
heavy 2: QVQLVQSGAEVKKPGSSVKVSCKASGFTFTDYKIHWVRQAPGQGLEWMGYFNPNSGYSTYAQKFQGRVTITADKSTSTAYMELSSLRSEDTAVYYCARLSPGGYYVMDAWGQGTTVTVSSASTKGPSVFPLAPSSKSTSGGTAALGCLVKDYFPEPVTVSWNSGALTSGVHTFPAVLQSSGLYSLSSVVTVPSSSLGTQTYICNVNHKPSNTKVDKKVEPKSCDKTHTCPPCPAPEAAGGPSVFLFPPKPKDTLMISRTPEVTCVVVDVSHEDPEVKFNWYVDGVEVHNAKTKPREEQYNSTYRVVSVLTVLHQDWLNGKEYKCKVSNKALGAPIEKTISKAKGQPREPQVCTLPPSRDELTKNQVSLSCAVKGFYPSDIAVEWESNGQPENNYKTTPPVLDSDGSFFLVSKLTVDKSRWQQGNVFSCSVMHEALHNHYTQKSLSLSPGK
light: DIQMTQSPSSLSASVGDRVTITCRASQGINNYLNWYQQKPGKAPKRLIYNTNNLQTGVPSRFSGSGSGTEFTLTISSLQPEDFATYYCLQHNSFPTFGQGTKLEIKRTVAAPSVFIFPPSDEQLKSGTASVVCLLNNFYPREAKVQWKVDNALQSGNSQESVTEQDSKDSTYSLSSTLTLSKADYEKHKVYACEVTHQGLSSPVTKSFNRGEC
B5: “1+1 IgG scFab, one armed” (anti-EGFR/anti-huCD3) (bispecific antibody)
heavy 1: not shown
heavy 2: QVQLVQSGAEVKKPGSSVKVSCKASGFTFTDYKIHWVRQAPGQGLEWMGYFNPNSGYSTYAQKFQGRVTITADKSTSTAYMELSSLRSEDTAVYYCARLSPGGYYVMDAWGQGTTVTVSSASTKGPSVFPLAPSSKSTSGGTAALGCLVKDYFPEPVTVSWNSGALTSGVHTFPAVLQSSGLYSLSSVVTVPSSSLGTQTYICNVNHKPSNTKVDKKVEPKSCDKTHTCPPCPAPEAAGGPSVFLFPPKPKDTLMISRTPEVTCVVVDVSHEDPEVKFNWYVDGVEVHNAKTKPREEQYNSTYRVVSVLTVLHQDWLNGKEYKCKVSNKALGAPIEKTISKAKGQPREPQVCTLPPSRDELTKNQVSLSCAVKGFYPSDIAVEWESNGQPENNYKTTPPVLDSDGSFFLVSKLTVDKSRWQQGNVFSCSVMHEALHNHYTQKSLSLSPGK
light: DIQMTQSPSSLSASVGDRVTITCRASQGINNYLNWYQQKPGKAPKRLIYNTNNLQTGVPSRFSGSGSGTEFTLTISSLQPEDFATYYCLQHNSFPTFGQGTKLEIKRTVAAPSVFIFPPSDEQLKSGTASVVCLLNNFYPREAKVQWKVDNALQSGNSQESVTEQDSKDSTYSLSSTLTLSKADYEKHKVYACEVTHQGLSSPVTKSFNRGEC

Experiments:
[1] = target: T1, human CEA expressed on tumor cells; assay: cell-based or functional assay
[2] = target: T1, human CEA expressed on tumor cells; assay: flow cytometry on LS-174T cells
Protocol: Binding of the different bispecific constructs to CD3 on Jurkat cells (ATCC #TIB-152), and the respective tumor antigen on target cells, was determined by FACS. Briefly, cells were harvested, counted and checked for viability. 0.15 - 0.2 million cells per well (in PBS containing 0.1% BSA; 90 µl) were plated in a round-bottom 96-well plate and incubated with the indicated concentration of the bispecific constructs and corresponding IgG controls (10 µl) for 30 min at 4° C. For a better comparison, all constructs and IgG controls were normalized to same molarity. […] Bound constructs were detected using a FACSCantoII (Software FACS Diva). The “(scFv)₂” molecule was detected using a FITC-conjugated anti-His antibody (Lucerna, #RHIS-45F-Z). […] Unless otherwise indicated, cells were fixed with 100 µl/well fixation buffer (BD #554655) for 15 min at 4° C. in the dark, centrifuged for 6 min at 400 × g and kept in 200 µl/well PBS containing 0.1% BSA until the samples were measured with FACS CantoII. EC50 values were calculated using the GraphPad Prism software.
(§1) As a control, the equivalent maximum concentration of the corresponding IgGs and the background staining due to the labeled 2ndary antibody (goat anti-human FITC-conjugated AffiniPure F(ab′)2 Fragment, Fcγ Fragment-specific, Jackson Immuno Research Lab # 109-096-098) were assessed as well.

[3] = target: T2, human CD3 expressed on Jurkat cells (human, UniProt P07766 23-207); assay: flow cytometry on Jurkat cells
T2 construct: CD3 complex on Jurkat cells (ATCC TIB-152); also called huCD3
T2 sequence (P07766 23-207 limits assumed): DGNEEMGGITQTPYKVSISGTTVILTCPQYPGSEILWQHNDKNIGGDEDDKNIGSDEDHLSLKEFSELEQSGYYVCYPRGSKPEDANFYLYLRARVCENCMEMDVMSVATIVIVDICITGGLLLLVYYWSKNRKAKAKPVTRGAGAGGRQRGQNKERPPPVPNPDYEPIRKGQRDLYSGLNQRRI
Protocol: Binding of the different bispecific constructs to CD3 on Jurkat cells (ATCC #TIB-152), and the respective tumor antigen on target cells, was determined by FACS. Briefly, cells were harvested, counted and checked for viability. 0.15 - 0.2 million cells per well (in PBS containing 0.1% BSA; 90 µl) were plated in a round-bottom 96-well plate and incubated with the indicated concentration of the bispecific constructs and corresponding IgG controls (10 µl) for 30 min at 4° C. For a better comparison, all constructs and IgG controls were normalized to same molarity. After the incubation, cells were centrifuged (5 min, 350 × g), washed with 150 µl PBS containing 0.1% BSA, resuspended and incubated for further 30 min at 4° C. with 12 µl/well of a FITC-or PE-conjugated secondary antibody. Bound constructs were detected using a FACSCantoII (Software FACS Diva). The “(scFv)₂” molecule was detected using a FITC-conjugated anti-His antibody (Lucerna, #RHIS-45F-Z). For all other molecules, a FITC- or PE-conjugated AffiniPure F(ab′)2 Fragment goat anti-human IgG Fcγ Fragment Specific (Jackson Immuno Research Lab # 109-096-098 / working solution 1:20, or #109-116-170 / working solution 1:80, respectively) was used. Cells were washed by addition of 120 µl/well PBS containing 0.1% BSA and centrifugation at 350 × g for 5 min. A second washing step was performed with 150 µl/well PBS containing 0.1% BSA. Unless otherwise indicated, cells were fixed with 100 µl/well fixation buffer (BD #554655) for 15 min at 4° C. in the dark, centrifuged for 6 min at 400 × g and kept in 200 µl/well PBS containing 0.1% BSA until the samples were measured with FACS CantoII. EC50 values were calculated using the GraphPad Prism software.
as §1

[4] = target: T3, Human EGFR (immobilized on CM5 sensor chip) (human, UniProt P00533 25-645, limits assumed); assay: SPR; construct (200 nM) captured on immobilized human EGFR, then CD3 fusion injected (FIG. 18C)
T3 construct: 8000 RU immobilized by amine coupling; also called Epidermal Growth Factor Receptor
Protocol: (§2) Analysis of simultaneous binding of the T-cell bispecific constructs to the tumor antigen and the human CD3ε was performed by direct coupling of 1650 resonance units (RU) of biotinylated D3 domain of MCSP on a sensor chip SA using the standard coupling procedure. Human EGFR was immobilized using standard amino coupling procedure. 8000 RU were immobilized on a CM5 sensor chip at pH 5.5.
(§3) Different T-cell bispecific constructs were captured for 60 s at 200 nM. Human CD3γ(G₄S)₅CD3ε-AcTev-Fc(knob)-Avi/Fc(hole) was subsequently passed at a concentration of 2000 nM and a flow rate of 40 µl/min for 60 s. Bulk refractive index differences were corrected for by subtracting the response obtained on a reference flow cell where the recombinant CD3ε was flown over a surface with immobilized D3 domain of MCSP or EGFR without captured T-cell bispecific constructs.

[5] = target: T3, Human EGFR (immobilized on CM5 sensor …); assay: SPR; construct (200 nM) captured on immobilized human EGFR, then CD3 fusion injected (FIG. 18A)
Protocol: as §2, §3

[6] = target: T3, Human EGFR (immobilized on CM5 sensor …); assay: SPR; construct (200 nM) captured on immobilized human EGFR, then CD3 fusion injected (FIG. 18B)
Protocol: as §2, §3

Binder	EC50 of killing (LDH release) of LS-174T cells, human PBMCs, E:T 10:1, 28 h [1]	EC50 of killing (LDH release) of MKN-45 cells, human PBMCs, E:T 10:1, 28 h [1]	EC50 [2]	EC50 [3]	other results
B1	0.673 nM	0.115 nM	6.7 nM	3.9 nM	
B2	0.955 nM	0.243 nM	9.3 nM	4.6 nM	
B3					binding result [4]: binds
B4					binding result [5]: binds
B5					binding result [6]: binds
